How the values were obtained:
[1] = tested on: interferon-stimulated response element (ISRE); experiment: ISRE luciferase reporter assay in immortalized mouse keratinocytes; type: cell-based; conditions: FGF7 10 ng/ml and/or IFNα 1000 U/ml, 12 h
Description: FIG. 3C pertains to immortalized mouse keratinocytes that were co-transfected with TK-Renilla and pGL4.45[luc2P/ISRE/Hygro] plasmids, starved in serum-free medium and then treated with FGF7 (10 ng/ml) and/or IFNα (1000 U/ml) for 12 h. Firefly luciferase activity was determined in cell lysates and normalized to Renilla luciferase activity (transfection control). The mean value in vehicle-treated cells (CTRL) was set to 1.
Mouse keratinocytes and HEK 293 cells were transfected with the expression vector for TK-Renilla and the expression vector pGL4.45[luc2P/ISRE/Hygro] (Promega). The latter contains five copies of an ISRE that drives expression of the luciferase reporter gene. Cells were seeded into 12-well plates, cultured for 24 h, and transfected using Lipofectamine 2000 […]. They were then starved in serum-free medium, treated with FGF7 (10 ng/ml) and/or IFNα (1000 U/ml) for 12 h, lysed and analyzed using a dual-luciferase assay system (Promega) as described by the manufacturer. Relative light units were measured in a GloMax 96 microplate luminometer with dual injectors (Promega).

[2] = tested on: interferon-stimulated genes (ISGs); experiment: ISG expression in human keratinocytes (HaCaT, primary foreskin) treated with FGF7, FGF10 and/or IFNα (qRT-PCR); type: cell-based; conditions: human primary foreskin keratinocytes and HaCaT, FGF7 10 ng/ml and IFNα 500 U/ml, 16 h
Description: FIG. 2F relates to serum-starved immortalized human keratinocytes (HaCaT cell line) that were treated for 6 h with FGF7, FGF10 (both 10 ng/ml) or vehicle (CTRL). RNA was analyzed by qRT-PCR for the expression of the indicated ISGs relative to RPLP0. Mean expression levels in CTRL cells were set to 1. Representative data from three experiments are shown. Scatter plot and mean values are shown in (A-D). Each dot represents a biological replicate.
FIGS. 3E and F pertain to confluent human primary foreskin keratinocytes and (E) or HaCaT cells (F) that were serum-starved for 24 h and treated with FGF7 (10 ng/ml) and/or IFNα (500 U/ml) for 16 h. Cells were analyzed for ISG mRNA levels by qRT-PCR relative to RPLP0. Mean expression levels in vehicle-treated (CTRL) cells were set to 1.
The human HaCaT keratinocyte cell line was cultured in DMEM (Sigma) supplemented with 10% FCS (Thermo Fisher). […]
Total RNA from isolated epidermis of mice or from total skin was purified with Trizol, followed by additional purification with the RNeasy Mini Kit, including on-column DNase treatment (Qiagen, Hilden, Germany). […] Relative gene expression was determined using the Roche LightCycler 480 SYBR Green system (Roche, Rotkreuz, Switzerland).

[3] = Active RAC1 detection after FGF7 treatment; type: cell-based, human; conditions: HaCaT cells, FGF7 10 ng/ml, 10 min
Description: FIG. 4D pertains to mouse primary keratinocytes (left panel) or HaCaT cells (right panel), which had been treated with FGF7 (10 ng/ml) or vehicle for 10 min and analyzed for active RAC1 using the Active RAC1 detection kit (Cell Signaling). Activation of FGFR signaling under these conditions was verified by phosphorylation of ERK1/2 (p42/44).

[4] = tested on: ZIKV; experiment: ZIKV infection of HaCaT cells; type: cell-based, Zika Virus
Description: FIGS. 6B and C relate to HaCaT cells that were serum starved overnight and then infected with the ZIKV strains Uganda (strain 976) (MOI=0.1) or French-Polynesia (PF13/251013-18) (MOI˜20). 2h after infection cells were treated with 20 ng/ml FGF7 or left untreated (CTRL). Culture medium+/−FGF7 was changed every day. 48h post infection cells were analyzed by immunofluorescence using a Flavivirus group-specific antibody (4G2) detecting the ZIKV envelope protein (ZIKV-Env) (B). Magnification bar in (B): 40 μm. Alternatively, cells were analyzed for ZIKV mRNA levels by qRT-PCR relative to RPL27 (C). Mean expression levels in vehicle-treated cells were set to 1. Representative out of four independent experiments are shown.
HaCaT cells were seeded on a 4-well tissue chamber on a PCA slide (5×10^4/chamber). After overnight serum starvation, they were infected with the ZIKV strains Uganda (strain 976) (MOI=0.1) or French-Polynesia (PF13/251013-18) (MOI˜20). 2h post infection cells were treated with FGF7 or left untreated. Culture media+/−FGF7 was changed every day. 48 hours post-infection cells were either analyzed by immunofluorescence using a Flavivirus group-specific antibody (4G2) detecting the ZIKV envelope protein (ZIKV-Env) or harvested and analyzed for ZIKV expression levels by qRT-PCR relative to human RPL27 (ZIKV primers: 5′-[…] -3′, SEQ ID NO: 49; 5′-[…] -3′, SEQ ID NO: 50). To investigate the effect of ZIKV and FGF7 on ISG expression, HaCaT cells were seeded in 6-well plates. After overnight serum starvation, confluent cells were infected with the ZIKV strain French-Polynesia (PF13/251013-18) (MOI˜20) in the presence or absence of FGF7 (20 ng/ml). 72 h post-infection cells were harvested and analyzed for OAS1 and MxA by qRT-PCR relative to RPL27.

B1: FGF7: recombinant human FGF7, the classical ligand of FGFR2b (protein, UniProt P21781 32-194, looked up)
Fibroblast growth factor 7: CNDMTPEQMATNVNCSSPERHTRSYDYMEGGDIRVRRLFCRTQWYLRIDKRGKVKGTQEMKNNYNIMEIRTVAVGIVAIKGVESEFYLAMNKEGKLYAKKECNEDCNFKELILENHYNTYASAKWTHNGGEMFVALNQKGIPVRGKKTKKEQKTAHFLPMAIT
ISRE-driven luciferase activity [1]: counteracted | increase in ISG expression in response to IFNα [2]: reduced | active RAC1 [3]: activated RAC1 | ZIKV gene expression (qRT-PCR relative to RPL27) ([4]; FGF7 20 ng/ml added 2 h after infection): efficient when added 2 h after the infection | number of cells expressing the ZIKV envelope protein ([4]; FGF7 20 ng/ml, 48 h post infection): increased the number of cells expressing the ZIKV envelope protein | increase of MxA and OAS1 expression during ZIKV infection ([4]; ZIKV French-Polynesia, FGF7 20 ng/ml, 72 h): strongly suppressed
